According to patent publication US12187807B2, “Antibody molecules to C5AR1 and uses thereof” (Visterra, Inc., priority 2020, dated 2025):
Substitutions are numbered along the chain they refer to.

Legend:
[1] = target: T1, C5aR1 mutants (N-terminus, ECL1, ECL2, ECL3) (Homo sapiens, UniProt P21730, D10A/K279N); assay: Alanine scanning / mutagenesis epitope mapping of C5aR1; format: binding; conditions: D10A
T1 sequence (P21730 with tags, fused parts or gaps D10A/K279N): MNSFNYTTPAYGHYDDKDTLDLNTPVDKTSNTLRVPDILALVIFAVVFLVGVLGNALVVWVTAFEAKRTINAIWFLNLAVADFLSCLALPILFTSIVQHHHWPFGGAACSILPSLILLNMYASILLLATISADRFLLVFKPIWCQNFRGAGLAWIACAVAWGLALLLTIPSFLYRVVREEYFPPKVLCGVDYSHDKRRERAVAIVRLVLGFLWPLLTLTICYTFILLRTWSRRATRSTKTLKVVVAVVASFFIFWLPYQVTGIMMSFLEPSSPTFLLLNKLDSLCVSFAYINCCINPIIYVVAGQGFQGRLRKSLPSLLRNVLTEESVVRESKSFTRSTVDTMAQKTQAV
In short: (§1)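 C5aR1 variants carried single alanine substitutions or introduced N-glycosylation sites across the N-terminus, ECL1, ECL2 and ECL3. Binding of individual monoclonal antibody clones to each mutant was assessed to map core epitopes. Sulfation of tyrosines 11 and 14 was considered for the site I binders.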

[2] = target: T2, C5aR1 mutants (N-terminus, ECL1, ECL2, ECL3) (Homo sapiens, UniProt P21730, K279N/Y11A); assay: as above; format: binding; conditions: Y11A
T2 sequence (P21730 with tags, fused parts or gaps Y11A/K279N): T1 sequence (P21730 with tags, fused parts or gaps D10A/K279N) with A10D, Y11A
In short: as §1

B1: clone 583: anti-C5aR1 Site I antibody; VH SEQ ID NO: 536, VL SEQ ID NO: 595 (antibody, V domains shown)
VH: EVQLVESGGGLVKPGGSLKLSCAASGFTFNAYAMSWVRQTPEKRLEWVASISTGGNTYCPDSVKDRFTVSRDNVRNILYLQMSSLRSEDTAMYYCTRGYQRFSGFAYWGQGTLVTVS
VL: DVVMTQTPLSPPVSLGYQASISCRSSQSLVHSNGNTYLNWYLQKPGQSPKLLIYKVSNRLSGVPDRFSGSGSGTDFTLKISRVETEDLGVYFCSQSTHVPYTFGGGTKLEIK
binding to C5aR1 mutant [1]: moderately reduce binding | binding to C5aR1 mutant [2]: abolishes binding
